Measurements from patent US20100196385A1 (AstraZeneca / MedImmune, published 2010).
Residue numbers refer to the chain shown, from its start. Names may count otherwise. Values belong to the binder of their own block, whether it stands above or below them.

What was measured:
full length human DLL4 [1] = target: T1, full length human DLL4 (human, UniProt Q9NR61 27-685); assay: FACS competition vs Notch1/Fc, HEK293 cells with human DLL4
T1 construct: whole, on cells; also called native DLL4 expressed in HEK293 cells
Method: (§1) Further experiments were performed on selected antibodies using HEK293 cells that were stably transfected with either human, mouse or cynomolgus monkey DLL4 using retroviral constructs. In these experiments, anti-DLL4 antibodies (final concentration: 10-0.01 μg/ml) diluted in PBS containing 2% FCS were added to DLL4-expressing HEK 293 cells (50000 cells/well diluted in PBS containing 2% FCS) and incubated for 1 h at 4° C. Subsequently, Alexa-647 labeled human, rat or APC labeled mouse Notch1/Fc (e.g. R&D Systems, catalog #3647-TK-050, 1057-TK-050, 5267-TK-050, respectively) was added at a final concentration of 0.01-0.5 μg/ml and plates were incubated for a further 2 h at 4° C. prior to washing and reading on a FACSCalibur instrument.
(§2) The activity of the mutated antibodies was assessed in two ways: firstly, the ability of the antibodies to block the binding of soluble Notch1/Fc to full length human DLL4 stably expressed in HEK293 cells as described in Example 3 was determined and, secondly, the binding of the antibodies to the same cell line used in the receptor-ligand competition studies was determined. For the binding studies, HEK293 cells stably overexpressing human DLL4 were resuspended in PBS containing 2% FCS at a concentration of 50,000 cells/well and incubated with titrations of antibody (final concentrations 0.01-10 μg/ml) for 1 h at 4° C. The cells were then washed and incubated with 0.31 μg/ml anti-human IgG-Fc-FITC (BD Pharmingen, cat#555786) for 30 minutes at 4° C. Bound […] was detected using FACS analysis. Results of these studies are summarized in Table 23, which show the effects of specific mutations to sequences of 9G8 and 2H10 on the ability of the antibodies to compete with Notch1 for binding to human DLL4 or to bind to human DLL4 relative to unmutated antibodies.

full length human DLL4 [2] = target: T1, full length human DLL4; assay: FACS binding, HEK293 cells with human DLL4
Method: as §2

full length human DLL4 [3] = target: T1, full length human DLL4; assay: FACS titration, HEK293 cells with human DLL4
Method: The binding affinities of the purified antibodies for DLL4 was estimated using is both FACS and BIAcore techniques. […] The cells were then washed and incubated with goat anti-human IgG-Fc-Cy5+5 μg/mL 7-Amino-Actinomycin (7AAD) for 30 minutes at 4° C.
In this equation, F=mean fluorescence, LT=total molecular mAb concentration, P′=proportionality constant that relates arbitrary fluorescence units to bound mAb, M=cellular concentration in molarity, n=number of receptors per cell, B=background signal, and KD=equilibrium dissociation constant. For each mAb titration curve an estimate for KD is obtained as P′, n, B, and KD are allowed to float freely in the nonlinear analysis. Table 20 summarizes the affinity estimates for the anti-DLL4 antibodies for human and cynomolgus monkey DLL4 derived using the methodology described above

[4] = target: T2, human soluble DLL4 (R&D systems catalog #1056-D4-050) (human, UniProt Q9NR61 27-524); assay: Biacore T100, antibody immobilised, soluble human DLL4 as analyte
T2 construct: Catalog number as printed; perhaps the same product as #1506-D4; also called antigen DLL4
Method: For Biacore analysis, each purified anti-DLL4 antibody was immobilized on a CM5 sensor chip within a T100 using standard amine coupling. Immobilization levels were kept below 200 RU. The concentration of DLL4 was determined by UV-VIS spectroscopy using a molar absorptivity at 280 nm of 110, 440 M⁻¹cm⁻¹, which was calculated from the sequence of the protein using a method developed by Pace et al. (G. R. Grimsley and C. N. Pace (2003) in Current Protocols in Protein Science (John Wiley & Sons, Inc.), 3.1.1-3.1.9). The antigen DLL4 (R&D systems; human catalog #1056-D4-050 or mouse, catalog #1389-D4-050) was diluted to a starting concentration of 32-64 nM and tested in a 3-fold dilution series in triplicate. The running buffer contained HBS-P with 0.1 mg/ml BSA and binding responses were collected at 23° C. Bound complexes were regenerated with a 15 s pulse of 10 mM of sodium hydroxide. The response data were globally fitted with a simple 1:1 interaction model and Table 20 summarizes the kₐ, kd and KD estimates obtained for the anti-DLL4 antibodies when binding to human soluble DLL4 was assessed.

full length human DLL4 [5] = target: T1, full length human DLL4; assay: FACS competition vs human Notch1/Fc, HEK293 cells with human DLL4
Method: as §1

T2 sequence (Q9NR61 27-524 limits assumed): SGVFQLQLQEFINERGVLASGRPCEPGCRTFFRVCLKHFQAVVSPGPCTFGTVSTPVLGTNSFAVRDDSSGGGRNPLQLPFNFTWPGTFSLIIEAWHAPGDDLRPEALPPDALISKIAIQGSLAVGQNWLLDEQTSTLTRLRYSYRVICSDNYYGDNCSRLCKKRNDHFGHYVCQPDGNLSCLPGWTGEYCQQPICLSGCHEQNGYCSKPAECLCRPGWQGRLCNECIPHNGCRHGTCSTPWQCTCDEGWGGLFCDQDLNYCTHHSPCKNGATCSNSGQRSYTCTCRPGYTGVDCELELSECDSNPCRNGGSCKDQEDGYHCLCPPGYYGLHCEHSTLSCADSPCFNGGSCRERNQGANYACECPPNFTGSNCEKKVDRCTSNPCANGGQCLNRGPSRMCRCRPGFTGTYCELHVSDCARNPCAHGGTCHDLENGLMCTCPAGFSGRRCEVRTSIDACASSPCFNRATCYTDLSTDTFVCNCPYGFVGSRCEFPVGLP
T1 sequence (Q9NR61 27-685): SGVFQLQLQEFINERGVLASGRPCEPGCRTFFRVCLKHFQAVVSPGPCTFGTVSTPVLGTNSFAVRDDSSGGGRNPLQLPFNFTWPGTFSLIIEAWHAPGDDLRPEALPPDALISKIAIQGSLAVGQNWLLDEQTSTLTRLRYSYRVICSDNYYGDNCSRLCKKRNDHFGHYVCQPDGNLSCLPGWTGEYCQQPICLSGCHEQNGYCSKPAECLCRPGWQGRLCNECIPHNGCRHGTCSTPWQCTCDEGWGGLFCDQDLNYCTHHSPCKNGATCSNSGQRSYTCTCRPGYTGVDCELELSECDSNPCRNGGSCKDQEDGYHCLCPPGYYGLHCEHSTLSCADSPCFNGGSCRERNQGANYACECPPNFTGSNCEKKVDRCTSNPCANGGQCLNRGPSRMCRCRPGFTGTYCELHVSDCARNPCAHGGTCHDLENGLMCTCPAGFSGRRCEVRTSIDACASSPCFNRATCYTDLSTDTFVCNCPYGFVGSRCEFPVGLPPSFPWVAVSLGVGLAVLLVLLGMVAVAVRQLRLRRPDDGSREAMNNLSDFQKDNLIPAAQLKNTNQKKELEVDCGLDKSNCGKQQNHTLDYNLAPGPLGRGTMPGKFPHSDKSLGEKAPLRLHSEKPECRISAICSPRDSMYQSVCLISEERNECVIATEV

B1: 9G8 IgG2 VH wt/VL wt (antibody, V domains shown)
VH: QLQLQESGPGLVKPSETLSLSCTVSGGSISSSSSYWGLIRQPPGKGLEWIGSIYYSGSTYYSPSLKSRVSISVDTSKNQFSLKLSSVTAADTAVYFCARQGYGGHPDVFDIWGQGTMVTVSS
VL: SSELTQSPSVSVSPGQTARITCSGDKLGDVYVCWYQQKTGQSPVLVIYEDTKRPSGIPERFSGSNSGNTATLTISGTQVMDEADYYCQAWDSTTAVIFGGGTKLTVL
notes: IgG2, transiently expressed
IC50 (full length human DLL4 [1]): 0.17 mg/L
EC50 (full length human DLL4 [2]): 0.071 mg/L

B2: 9G8 IgG2 VH L38W/VL S7P (antibody, V domains shown)
VH: B1 VH with L38W
VL: B1 VL with S7P
notes: IgG2
IC50 (full length human DLL4 [1]): 0.155 mg/L
EC50 (full length human DLL4 [2]): 0.074 mg/L

B3: 9G8 IgG2 VH wt/VL V79A (antibody, V domains shown)
VH: B1 VH
VL: B1 VL with V79A
notes: IgG2
IC50 (full length human DLL4 [1]): 0.211 mg/L
EC50 (full length human DLL4 [2]): 0.095 mg/L

B5: 9G8 IgG2 VH wt/VL C33S (antibody, V domains shown)
VH: B1 VH
VL: B1 VL with C33S
notes: IgG2
IC50 (full length human DLL4 [1]): 0.136 mg/L
EC50 (full length human DLL4 [2]): 0.067 mg/L

B7: 9G8 IgG2 VH wt/VL S7P (antibody, V domains shown)
VH: B1 VH
VL: B1 VL with S7P
notes: IgG2
IC50 (full length human DLL4 [1]): 0.181 mg/L
EC50 (full length human DLL4 [2]): 0.082 mg/L

B8: 2H10 IgG2 VH wt/VL wt (antibody, V domains shown)
VH: QVQLVESGGGVVQPGRSLRLSCAASGFTFSRHGMHWVRQAPGKGLEWVAVVWFDGSNIYYADSVKGRFTISRDNSKNTLYLQMNSLRAEDTAMYYCARDSRIAAADYWGQGTLVTVSS
VL: SYELTQPPSVSVSPGQTVSITCSGDKLGDKYVCWYQQKPGQSPVLVIYQESKRPSGIPERFSGSSSGNTATLTISGTQAMDEADYYCQTWDSSLVVFGGGTKLTVL
notes: IgG2, transiently expressed
IC50 (full length human DLL4 [1]): 0.224 mg/L
EC50 (full length human DLL4 [2]): 0.043 mg/L

B9: 2H10 IgG2 VH wt/VL C33S (antibody, V domains shown)
VH: B8 VH
VL: B8 VL with C33S
notes: IgG2
IC50 (full length human DLL4 [1]): 0.084 mg/L
EC50 (full length human DLL4 [2]): 0.031 mg/L

B11: 4B4 IgG1 (antibody, V domains shown)
VH: QVLLIQSGAEVKKPGASVQVSCKASGYTFTNYGVIWVRQAPGQGLEYMGWISAYNGNTNYAQKLQDRVTMTSDTSTTTAYMELRSLRSDDTAVYYCARELGSSFDYWGQGTLVTVSS
VL: SYELTQPPSVSVSPGQTARITCSGDALPKKYAYWYQQKSGQAPVLVIYEDIKRPSGIPERFSGSSSGTMATLTISGAQVEDEADYYCFSTDNSGDHSVFGGGTKLTVL
notes: Formatted as IgG1
Kd (full length human DLL4 [3]): 0.157 nM
Kd [4]: 0.17 nM
koff [4]: 2.01e-05 s⁻¹
kon [4]: 118000 M⁻¹ s⁻¹
IC50 (full length human DLL4 [5]): 0.85 nM

Next, values leading:

IC50 (full length human DLL4 [1]): 0.133 mg/L
EC50 (full length human DLL4 [2]): 0.07 mg/L
B4: 9G8 IgG2 VH L38W/VL wt (antibody, V domains shown)
VH: B1 VH with L38W
VL: B1 VL
notes: IgG2

IC50 (full length human DLL4 [1]): 0.107 mg/L
EC50 (full length human DLL4 [2]): 0.051 mg/L
B6: 9G8 IgG2 VH L38W/VL C33S (antibody, V domains shown)
VH: B1 VH with L38W
VL: B1 VL with C33S
notes: IgG2

Kd (full length human DLL4 [3]): 0.103 nM
Kd [4]: 0.594 nM
koff [4]: 0.000171 s⁻¹
kon [4]: 288000 M⁻¹ s⁻¹
IC50 (full length human DLL4 [5]): 0.57 nM
B10: 21H3 IgG1 (antibody, V domains shown)
VH: QVQLVQSGAEVKKPGASVKVSCKASGYTFTNYGITWVRQAPGQGPEWMGWISAYNGNTNYAQKLQDRVTVTTDTSTSTAYMELRSLRSDDTAVYYCARDRVPRIPVTTEAFDIWGQGTMVTVSS
VL: QSVLTQPPSASGTPGQRVTISCSGSSSNIGSYFVYWYQQLPGTAPKLLIYRNNQRPSGVPDRFSGSESGTSASLAISGLRSEDEADYYCAAWDDSLSGHWVFGGGTRLTVL
notes: Formatted as IgG1

Kd (full length human DLL4 [3]): 0.232 nM
Kd [4]: 0.336 nM
koff [4]: 3.6e-05 s⁻¹
kon [4]: 107000 M⁻¹ s⁻¹
IC50 (full length human DLL4 [5]): 1.19 nM
B12: 4B4 IgG2 (antibody, V domains shown)
VH: B11 VH
VL: B11 VL
notes: Formatted as IgG2
